Data on ten molecules can be found in patent US20090137003A1.

In test [1] the target is RSV protein F of strain B Wash/18537 (RSV B Wash/18537 (ATCC number VR-1580)) (UniProt P13843). The experiment in a line: cell-based or functional assay.
In test [2] the target is RSV protein F of strain Long (RSV Long (ATCC number VR-26)) (UniProt P12568). The experiment in a line: cell-based or functional assay.
Test [3] deals with RSV protein F of strain B1 (RSV B1 (ATCC number VR-1400)) (UniProt O36634). Description: cell-based or functional assay.
Sequence of RSV protein F of strain B1 (RSV B1 (ATCC number VR-1400)) (O36634 26-574 limits assumed): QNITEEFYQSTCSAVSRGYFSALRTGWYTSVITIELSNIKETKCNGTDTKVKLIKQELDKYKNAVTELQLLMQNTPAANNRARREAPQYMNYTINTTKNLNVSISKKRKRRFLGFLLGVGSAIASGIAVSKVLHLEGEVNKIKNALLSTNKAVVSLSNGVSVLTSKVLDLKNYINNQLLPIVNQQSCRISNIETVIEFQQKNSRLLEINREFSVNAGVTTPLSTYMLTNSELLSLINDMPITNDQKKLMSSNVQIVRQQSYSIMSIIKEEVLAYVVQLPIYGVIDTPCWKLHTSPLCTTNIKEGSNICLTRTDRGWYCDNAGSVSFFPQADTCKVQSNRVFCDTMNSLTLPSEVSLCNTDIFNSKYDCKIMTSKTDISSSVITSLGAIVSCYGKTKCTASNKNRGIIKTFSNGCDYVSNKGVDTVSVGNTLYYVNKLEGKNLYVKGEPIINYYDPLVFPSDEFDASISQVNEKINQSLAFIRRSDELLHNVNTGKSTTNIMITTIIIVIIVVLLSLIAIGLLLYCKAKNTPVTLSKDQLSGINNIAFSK
Test [4] has as its target RSV protein G (recombinant G protein) (respiratory syncytial virus (RSV), strain not stated). Description: SPR (Biacore), Fab on recombinant antigen. In general terms: In SPR one partner is held on a chip, and binding of the other changes the refractive index at the surface.

Sequence of RSV protein F of strain Long (RSV Long (ATCC number VR-26)) (P12568 26-574): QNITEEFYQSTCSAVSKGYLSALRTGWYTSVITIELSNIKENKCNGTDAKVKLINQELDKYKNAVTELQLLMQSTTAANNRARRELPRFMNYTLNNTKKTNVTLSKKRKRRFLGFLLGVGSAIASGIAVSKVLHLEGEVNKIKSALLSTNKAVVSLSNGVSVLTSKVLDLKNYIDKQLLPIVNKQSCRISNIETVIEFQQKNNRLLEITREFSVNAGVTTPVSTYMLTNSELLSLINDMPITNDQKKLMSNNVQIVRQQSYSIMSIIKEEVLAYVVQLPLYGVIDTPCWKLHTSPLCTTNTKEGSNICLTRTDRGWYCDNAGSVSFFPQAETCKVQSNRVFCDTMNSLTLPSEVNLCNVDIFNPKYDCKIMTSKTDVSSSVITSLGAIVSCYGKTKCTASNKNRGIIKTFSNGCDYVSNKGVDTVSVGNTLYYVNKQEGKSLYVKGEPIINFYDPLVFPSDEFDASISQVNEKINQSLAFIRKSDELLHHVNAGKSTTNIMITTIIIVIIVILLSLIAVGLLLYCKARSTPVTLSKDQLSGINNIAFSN
Sequence of RSV protein F of strain B Wash/18537 (RSV B Wash/18537 (ATCC number VR-1580)) (P13843 26-574): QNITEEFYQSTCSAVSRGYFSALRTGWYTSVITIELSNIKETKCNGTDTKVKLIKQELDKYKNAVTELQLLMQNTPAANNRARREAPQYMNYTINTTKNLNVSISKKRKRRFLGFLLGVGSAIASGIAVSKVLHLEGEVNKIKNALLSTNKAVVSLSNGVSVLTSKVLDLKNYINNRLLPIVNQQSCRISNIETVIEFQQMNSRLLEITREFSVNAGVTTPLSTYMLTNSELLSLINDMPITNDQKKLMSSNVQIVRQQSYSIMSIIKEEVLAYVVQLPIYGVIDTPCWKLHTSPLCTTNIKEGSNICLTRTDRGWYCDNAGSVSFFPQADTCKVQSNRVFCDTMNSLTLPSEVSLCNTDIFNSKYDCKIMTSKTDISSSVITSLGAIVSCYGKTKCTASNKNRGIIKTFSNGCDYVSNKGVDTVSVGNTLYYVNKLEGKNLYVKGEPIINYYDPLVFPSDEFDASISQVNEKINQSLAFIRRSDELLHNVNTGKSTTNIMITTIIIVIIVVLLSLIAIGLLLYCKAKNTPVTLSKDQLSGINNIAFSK

B1: antibody clone 818 (antibody, human IgG1, kappa, V domains shown)
VH: QVTLRESGPAVVKPTETLTLTCAFSGFSLNAGRVGVSWIRQPPGQAPEWLARIDWDDDKAFRTSLKTRLSISKDSSKNQVVLTLSNMDPADTATYYCARTQVFASGGYYLYYLDHWGQGTLVTVSS
VL: DIQMTQSPSSLSASVGDRVTITCRASQTIASYVNWYQQKPGRAPSLLIYAASNLQSGVPPRFSGSGSGTDFTLTISGLQPDDFATYYCQQSYSYRALTFGGGTKVEIKR
As to B1, the PRNT EC50 with complement, RSV 18537 in test [1] came out at 0.21 µg/mL. The PRNT EC50 with complement, RSV Long in test [2] was found to be 0.15 µg/mL.

B2: antibody clone 800 (antibody, human IgG1, kappa, V domains shown)
VH: QVQLVESGGAVVQPGRSLRLSCEVSGFSFSDYGMNWVRQGPGKGLEWVAVIWHDGSNKNYLDSVKGRFTVSRDNSKNTLFLQMNSLRAEDTAVYYCARTPYEFWSGYYFDFWGQGTLVTVSS
VL: AIQLTQSPSSLSASVGDRVTLTCRASQGITDSLAWYQQKPGKAPKVLLYAASRLESGVPSRFSGRGSGTDFTLTISSLQPEDFATYYCQQYSKSPATFGPGTKVEIRR
B2 showed a PRNT EC50 with complement, RSV Long in test [2] of 0.15 µg/mL. In test [3], this molecule had a PRNT EC50 with complement, RSV B1 of 0.16 µg/mL.

B3: Fab fragment of antibody clone 796 (Fab)
VH: QVQLVESGGGVVQPGRSLRLSCAASGFSFSHFGMHWVRQVPGKGLEWVAIISYDGNNVHYADSVKGRFTISRDNSKNTLFLQMNSLRDDDTGVYYCAKDDVATDLAAYYYFDVWGRGTLVTVSS
light: DIVMTQTPLSLSVTPGQPASISCRSSQSLLRSDGKTFLYWYLQKPGQSPQPLMYEVSSRFSGVPDRFSGSGSGADFTLNISRVETEDVGIYYCMQGLKIRRTFGPGTKVEIKRTVAAPSVFIFPPSDEQLKSGTASVVCLLNNFYPREAKVQWKVDNALQSGNSQESVTEQDSKDSTYSLSSTLTLSKADYEKHKVYACEVTHQGLSSPVTKSFNRGEC
The Kd is the equilibrium constant for the complex coming apart. What is called koff is the first-order rate constant of dissociation. A word on the kon: it is a measure of how fast the partners come together. As for B3, in test [4], the Kd amounted to 0.48 nM, the koff was 0.000403 s⁻¹, the kon was 833000 M⁻¹ s⁻¹ and the t1/2 is 28.7 min.

B4: antibody clone 880 (antibody, human IgG1, kappa, V domains shown)
VH: QITLKESGPTLVRPTQTLTLTCTFSGFSLSTSKLGVGWIRQPPGKALEWLALVDWDDDRRYRPSLKSRLTVTKDTSKNQVVLTMTNMDPVDTATYYCAHSAYYTSSGYYLQYFHHWGPGTLVTVSS
VL: DIQMTQSPSSLAASVGDRVTITCRASQTIASYVNWYQQKPGKAPNLLIYAASSLQSGVPSRFSGSGSGTDFTLTISSLQPEDFASYFCQQSYSFPYTFGQGTKLDIKR
In test [1], B4 displayed a PRNT EC50 with complement, RSV 18537 of 0.95 µg/mL. In test [2], this molecule came in with a PRNT EC50 with complement, RSV Long of 0.38 µg/mL. Further, the PRNT EC50 with complement, RSV B1 in test [3] stood at 0.4 µg/mL.

B5: Fab fragment of antibody clone 816 (Fab)
VH: EVQLLESGGGLVQPGGSLRLSCVASGFTFSTYAMTWVRQAPGKGLEWVSVIRASGDSEIYADSVRGRFTISRDNSKNTVFLQMDSLRVEDTAVYFCANIGQRRYCSGDHCYGHFDYWGQGTLVTVSS
light: DIVMTQSPLSLPVTPGEPASISCRSSQSLLHSDGRYYVDWYLQKPGQSPHLLIYLASNRASGVPDRFTGSGSGTDFTLKISRVEAEDVGVYYCMQGLHTPWTFGQGTKVDIKRTVAAPSVFIFPPSDEQLKSGTASVVCLLNNFYPREAKVQWKVDNALQSGNSQESVTEQDSKDSTYSLSSTLTLSKADYEKHKVYACEVTHQGLSSPVTKSFNRGEC
As to B5, in test [4], the Kd is 0.09 nM, the koff stood at 0.000178 s⁻¹, the kon came to 2.02e+06 M⁻¹ s⁻¹ and the t1/2 came to 65 min.

B6: Fab fragment of antibody clone 859 (Fab)
VH: QVQLVESGGGVVQPGRSLRLSCAVSGSSFSKYGIHWVRQAPGKGLEWVAVISYDGSKKYFTDSVKGRFTIARDNSQNTVFLQMNSLRAEDTAVYYCATGGGVNVTSWSDVEHSSSLGYWGLGTLVTVSS
light: DIQMTQSPSSLSASVGDRVTITCRASQGIRNYLAWYQQKPGKVPKLLVFAASTLQSGVPSRFSGSGSGTDFTLTISSLQPEDVATYYCQRYNSAPLTFGGGTKVEIKRTVAAPSVFIFPPSDEQLKSGTASVVCLLNNFYPREAKVQWKVDNALQSGNSQESVTEQDSKDSTYSLSSTLTLSKADYEKHKVYACEVTHQGLSSPVTKSFNRGEC
With B6, in test [4], the Kd was 0.12 nM, the koff stood at 4.63e-05 s⁻¹, the kon worked out at 380000 M⁻¹ s⁻¹ and the t1/2 was 250 min.

B7: Fab fragment of antibody clone 853 (Fab)
VH: EVQLVQSGAEVKKPGQSLKISCKTSGYIFTNYWIGWVRQRPGKGLEWMGVIFPADSDARYSPSFQGQVTISADKSIGTAYLQWSSLKASDTAIYYCARPKYYFDSSGQFSEMYYFDFWGQGTLVTVSS
light: EIVLTQSPGTLSLSPGERATLSCRASQSVSSNYLAWYQQKPGQAPRLLIYGASSRAAGMPDRFSGSGSGTDFTLTISRLEPEDFAVYYCQQYGNSPLTFGGGTEVEIKRTVAAPSVFIFPPSDEQLKSGTASVVCLLNNFYPREAKVQWKVDNALQSGNSQESVTEQDSKDSTYSLSSTLTLSKADYEKHKVYACEVTHQGLSSPVTKSFNRGEC
B7: in test [4], the Kd was found to be 0.79 nM, the koff turned out to be 0.0014 s⁻¹, the kon was found to be 1.77e+06 M⁻¹ s⁻¹ and the t1/2 was 8.25 min.

B8: antibody clone 894 (antibody, human IgG1, kappa, V domains shown)
VH: QVQLVESGGGVVQPGKSLRLSCAASGFRFSDYGMHWVRQAPSKGLEWVAVIWHDGSNIRYADSVRGRFSISRDNSKNTLYLQMNSMRADDTAFYYCARVPFQIWSGLYFDHWGQGTLVTVSS
VL: EIVMTQSPATLSVSPGERATLSCRASQSVGNNLAWYQQRPGQAPRLLIYGASTRATGIPARFSGSGSGTEFTLTISSLQSEDFAVYYCQQYDKWPETFGQGTKVDIKR
As for B8, in test [1], the PRNT EC50 with complement, RSV 18537 stood at 0.07 µg/mL. In test [2], this molecule yielded a PRNT EC50 with complement, RSV Long of 0.08 µg/mL.

B9: antibody clone 831 (antibody, human IgG1, kappa, V domains shown)
VH: QVQLVQSGAEVKKPGASVKVSCKASANIFTYAMHWVRQAPGQRLEWMGWINVGNGQTKYSQRFQGRVTITRDTSATTAYMELSTLRSEDTAVYYCARRASQYGEVYGNYFDYWGQGTLVTVSS
VL: DIQMTQSPSTLSASVGDRLTITCRASQNIYNWLAWYQQKPGKAPKLLIYDASTLESGVPSRFSGSGSGTEFTLTISSLQPDDFATYYCQQYNSLSPTFGQGTKVEIKR
In the case of B9, in test [1], the PRNT EC50 with complement, RSV 18537 was 0.72 µg/mL. The PRNT EC50 with complement, RSV Long in test [2] was 0.08 µg/mL. Also, the PRNT EC50 with complement, RSV B1 in test [3] is 1.66 µg/mL.

B10: antibody clone 827 (antibody, human IgG1, kappa, V domains shown)
VH: QVQLVQSGAEVKKPGASVKVSCRVSGHTFTALSKHWMRQGPGGGLEWMGFFDPEDGDTGYAQKFQGRVTMTEDTATGTAYMELSSLTSDDTAVYYCATVAAAGNFDNWGQGTLVTVSS
VL: DIQMTQSPSSLAASVGDRVTITCRASQFISSYLHWYQQRPGKAPKLLMYAASTLQSGVPSRFSGSGSGTDFTLTISSLQPEDFATYYCQQSYTNPYTFGQGTKLEIKR
With B10, the PRNT EC50 with complement, RSV 18537 in test [1] was 0.1 µg/mL. This molecule showed a PRNT EC50 with complement, RSV Long in test [2] of 0.16 µg/mL.
